Experimental findings from article PMC8920257 are described below.

Some targets named below: ACE2 p.Lys26Arg (human) (UniProt Q9BYF1); ACE2 p.Pro389His (human) (UniProt Q9BYF1); ACE2 p.Glu329Gly (human) (UniProt Q9BYF1); ACE2 p.Phe40Leu (human) (UniProt Q9BYF1); ACE2 p.Gly326Glu (human) (UniProt Q9BYF1); ACE2 p.Glu35Lys (human) (UniProt Q9BYF1); ACE2 p.Thr27Arg (human) (UniProt Q9BYF1); ACE2 p.Ser19Pro (human) (UniProt Q9BYF1); ACE2 p.Asp355Asn (human) (UniProt Q9BYF1); ACE2 p.Glu37Lys (human) (UniProt Q9BYF1).

Assay in all cases: SPR
On the technique in general: SPR reads the build-up and loss of mass on a sensor chip optically.

As for “SARS-CoV-2 Spike receptor binding domain (from UniProt P0DTC2) (domain or fragment)”, the SPR ΔΔG against ACE2 WT with ACE2 p.Lys26Arg (human) was 0.26 kcal/mol; with ACE2 p.Pro389His (human) it was 0.27 kcal/mol; with ACE2 p.Glu329Gly (human) it was -0.09 kcal/mol; in the assay with ACE2 p.Phe40Leu (human), 0.11 kcal/mol; with ACE2 p.Gly326Glu (human), -0.65 kcal/mol; with ACE2 p.Glu35Lys (human) it was -0.36 kcal/mol. In addition, the SPR ΔΔG against ACE2 WT in the assay with ACE2 p.Thr27Arg (human) was -0.11 kcal/mol; with ACE2 p.Ser19Pro (human) it was 0.59 kcal/mol; with ACE2 p.Asp355Asn (human), under -3.16 kcal/mol; in the assay with ACE2 p.Glu37Lys (human), -1.33 kcal/mol. In addition, the ΔΔG against ACE2 WT with ACE2 p.Lys26Arg (human) was 0.31 kcal/mol; with ACE2 p.Pro389His (human), 0.12 kcal/mol; with ACE2 p.Glu329Gly (human), -0.06 kcal/mol; with ACE2 p.Phe40Leu (human) it was 0.14 kcal/mol; in the assay with ACE2 p.Gly326Glu (human), -0.67 kcal/mol; with ACE2 p.Glu35Lys (human) it was -0.29 kcal/mol. Further, in the assay with ACE2 p.Glu37Lys (human), the ΔΔG against ACE2 WT was -1.25 kcal/mol.
